The text below walks through data of patent US7129072.

For this assay, the target named is FGFR1 D2-D3 (residues 142-365 of human FGFR1) (human) (UniProt P11362). Description: calculated from the X-ray crystal structure.
Sequence of FGFR1 D2-D3 (residues 142-365 of human FGFR1) (human) (P11362 149-359 limits assumed): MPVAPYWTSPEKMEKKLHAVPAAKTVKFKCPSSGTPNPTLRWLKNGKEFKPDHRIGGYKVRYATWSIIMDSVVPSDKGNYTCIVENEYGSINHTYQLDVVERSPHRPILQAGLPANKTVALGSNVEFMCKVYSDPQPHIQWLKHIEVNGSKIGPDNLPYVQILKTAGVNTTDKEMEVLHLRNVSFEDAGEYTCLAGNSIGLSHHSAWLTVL

In the case of “FGF1 (from UniProt P05230 21-155) (ligand)”, the total accessible surface area buried in the complex is 2200 Å^2.
